Patent publication US20240317847A1 (Bayer, published 2024)
Positions count from the first letter of the chain named. Values belong to the binder of their own block, whether it stands above or below them.

Assays:
human IL-11 [1] = biological target: T1, human IL-11 (human, UniProt P20809 22-199); test: cell-based or functional assay
T1 sequence: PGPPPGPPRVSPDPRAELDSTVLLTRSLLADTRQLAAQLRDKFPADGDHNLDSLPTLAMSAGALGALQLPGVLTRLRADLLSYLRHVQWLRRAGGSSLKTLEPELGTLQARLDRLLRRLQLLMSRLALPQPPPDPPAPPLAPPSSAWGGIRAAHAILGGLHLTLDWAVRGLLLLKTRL

murine IL-11 [2] = biological target: T2, murine IL-11 (mouse, UniProt P47873 22-199); test: cell-based or functional assay
T2 sequence: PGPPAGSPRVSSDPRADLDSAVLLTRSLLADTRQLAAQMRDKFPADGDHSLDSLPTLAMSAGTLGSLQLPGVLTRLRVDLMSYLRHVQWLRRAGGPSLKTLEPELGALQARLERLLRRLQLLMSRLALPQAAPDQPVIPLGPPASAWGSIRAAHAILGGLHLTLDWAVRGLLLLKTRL

human IL-11 [3] = biological target: T1, human IL-11; test: SPR; limit told of 12 single-site germlining mutants; antigen not given, SPR run on human and mouse IL-11
murine IL-11 [4] = biological target: T2, murine IL-11; test: as above
human IL-11 [5] = biological target: T1, human IL-11; test: cell-based or functional assay; remark: listed apart in the source
murine IL-11 [6] = biological target: T2, murine IL-11; test: cell-based or functional assay; remark: listed apart in the source

B1: TPP-31294 (antibody, IgG4, V domains shown)
VH: EVQLLESGGGLVQPGGSLRLSCAASGFTFSHYDMNWLRQAPGKGLEWVAVISYDGSNKFYADFVKGRFTISRDNSKNTLYLQMNSLRAEDTAVYYCARTPGSHFDYWGQGTLVTVSS
VL: QSVLTQPPSASGTPGQRVTISCSGSSSNIGNNAVNWYQQLPGTAPKLLIYYDDLLPSGVPDRFSGSKSGTSASLAISGLRSEDEADYYCSAWDDSLNGVVFGGGTKLTVL
notes: hIgG4 SPLE, lambda
IC50, RGA 1 (human IL-11 [1]): 96 nM | IC50, RGA 2 (human IL-11 [1]): 38 nM | IC50, RGA 1 (murine IL-11 [2]): 41 nM | IC50, RGA 2 (murine IL-11 [2]): 28 nM | Kd (human IL-11 [3]): < 19 nM | Kd (murine IL-11 [4]): < 19 nM | RGA potency (mean) (human IL-11 [5]): < 170 nM | RGA potency (mean) (murine IL-11 [6]): < 170 nM

B3: TPP-31292 (antibody, IgG4, V domains shown)
VH: B1 VH with N35H, A49G
VL: B1 VL
notes: hIgG4 SPLE, lambda
IC50, RGA 1 (human IL-11 [1]): 234 nM | IC50, RGA 2 (human IL-11 [1]): 107 nM | IC50, RGA 1 (murine IL-11 [2]): 52 nM | IC50, RGA 2 (murine IL-11 [2]): 39 nM | Kd (human IL-11 [3]): < 19 nM | Kd (murine IL-11 [4]): < 19 nM | RGA potency (mean) (human IL-11 [5]): < 170 nM | RGA potency (mean) (murine IL-11 [6]): < 170 nM

B5: TPP-31277 (antibody, IgG4, V domains shown)
VH: B1 VH with A49G
VL: B1 VL with N31S
notes: hIgG4 SPLE, lambda
IC50, RGA 1 (human IL-11 [1]): 211 nM | IC50, RGA 2 (human IL-11 [1]): 47 nM | IC50, RGA 1 (murine IL-11 [2]): 43 nM | IC50, RGA 2 (murine IL-11 [2]): 27 nM | Kd (human IL-11 [3]): < 19 nM | Kd (murine IL-11 [4]): < 19 nM | RGA potency (mean) (human IL-11 [5]): < 170 nM | RGA potency (mean) (murine IL-11 [6]): < 170 nM

B6: TPP-31278 (antibody, IgG4, V domains shown)
VH: B1 VH with A49G
VL: B1 VL with A33Y
notes: hIgG4 SPLE, lambda
IC50, RGA 1 (human IL-11 [1]): 22 nM | IC50, RGA 2 (human IL-11 [1]): 2.36 nM | IC50, RGA 1 (murine IL-11 [2]): 0.13 nM | IC50, RGA 2 (murine IL-11 [2]): 0.08 nM | Kd (human IL-11 [3]): < 19 nM | Kd (murine IL-11 [4]): < 19 nM | RGA potency (mean) (human IL-11 [5]): < 170 nM | RGA potency (mean) (murine IL-11 [6]): < 170 nM

B7: TPP-31285 (antibody, IgG4, V domains shown)
VH: B1 VH with A49G
VL: B1 VL with S90A
notes: hIgG4 SPLE, lambda
IC50, RGA 1 (human IL-11 [1]): 50 nM | IC50, RGA 2 (human IL-11 [1]): 16 nM | IC50, RGA 1 (murine IL-11 [2]): 111 nM | IC50, RGA 2 (murine IL-11 [2]): 23 nM | Kd (human IL-11 [3]): < 19 nM | Kd (murine IL-11 [4]): < 19 nM | RGA potency (mean) (human IL-11 [5]): < 170 nM | RGA potency (mean) (murine IL-11 [6]): < 170 nM

Other lines, results leading:

IC50, RGA 1 (human IL-11 [1]): 46 nM | IC50, RGA 2 (human IL-11 [1]): 158 nM | IC50, RGA 1 (murine IL-11 [2]): 20 nM | IC50, RGA 2 (murine IL-11 [2]): 22 nM | Kd (human IL-11 [3]): < 19 nM | Kd (murine IL-11 [4]): < 19 nM | RGA potency (mean) (human IL-11 [5]): < 170 nM | RGA potency (mean) (murine IL-11 [6]): < 170 nM
B2: TPP-31296 (antibody, IgG4, V domains shown)
VH: B1 VH with A49G, F63S
VL: B1 VL
notes: hIgG4 SPLE, lambda

IC50, RGA 1 (human IL-11 [1]): 101 nM | IC50, RGA 2 (human IL-11 [1]): 131 nM | IC50, RGA 1 (murine IL-11 [2]): 65 nM | IC50, RGA 2 (murine IL-11 [2]): 17 nM | Kd (human IL-11 [3]): < 19 nM | Kd (murine IL-11 [4]): < 19 nM | RGA potency (mean) (human IL-11 [5]): < 170 nM | RGA potency (mean) (murine IL-11 [6]): < 170 nM
B4: TPP-31284 (antibody, IgG4, V domains shown)
VH: B1 VH with A49G
VL: B1 VL with L55R
notes: hIgG4 SPLE, lambda
